pKd: −log10 of the molar value.
Biological target: human TFPIα (human) (UniProt P10646)
Assay: SPR Biacore T200; antibody captured on anti-human IgG Fc; TFPI as analyte; 1:1 model

pKd: 9.31
koff: 0.000399 s⁻¹
kon: 822000 M⁻¹ s⁻¹
Substance: Bay 2A8-K95L (antibody)

— US20160152729A1
